Target: the molecule itself
Assay: cryo-EM structure; cryo-electron tomography and subtomogram averaging (PEET, C3 symmetry) of glycoprotein spikes on purified BUNV virions, pH 7.3/no K+, 2 hr at 37 °C; tripod average ~16 Å, floor average ~13 Å (GS-FSC); X-ray head/stalk structures and an AlphaFold Gn-Gc model fitted into the maps

B1: Bunyamwera virus (BUNV) glycoprotein Gc (natural protein)
chain: EEDCWKNEELKEDCVGPLIAPKDCTDKDHKTYLSEASLLATAKKITQVDAENVEILGKTMESAIRVIERQKTYHRMHLLEAVFLNKHCDYYKMFEHNSGYSQVKWRMMIKTQHFDICALQANSPFCAQCIADNSCAQGSWEFDTHMNSTYSSKVDNFKHDFSLFLRIFEAAFPGTAYVHLLTNIKEKKPYQAVSMIEKIKKKFPNNKLLIGYLDFGKYLLGLSHASTYELQQRQLDKLYQPTELTRSGGQQTSLANSVVGQATKECKKYKDVSCLSPRFGIPLEDLISCCDQPNYNIYKKPKKVYKAHDKEETWCINDQHCLVDFVPAEADTVEKLKPMKCWLVDPGKNDDVYSIAIKTCRVVDKGVCTVNSQKWNIIKCDSGPLYYSDHIPGEDTGNDIGHYCVSAGCKTDRYPINPDVVTDCVWEFTSRKSQYIGKISMQSLEDYEKALTDRLTHTLETYSFAPLENLPHIKPVYKYITAQGVENSDGIEGAFITASIPAAGGTSIGYNVRSKDGFPLLDLIVFVKSAVIKSTYNHIYDTGPTISINTKHDEHCTGQCPSNIEHEANWLTFSQERTSRWGCEEFGCLAVNTGCVFGSCQDVIRPETKVYRKAVDEVVILTVCITYPGHTFCTEINAIEPKITEEIELQFKTVDTKTLPYIVAVNNHKLYSGQINDLGTFGQMCGNVQKTNSSILGTGTPKFDYTCHGASRKDIIVRRCYNNNFDSCKLLKEETQLIFNDDHDTITVYNTNHLIGELAIKLILGDIQYKLFTETLDLQIDAKCVGCPDCFESYSCNFQIVSNIDTICSLEGPCDTFHNRISIKAMQQNYAVKLSCQKDPRPSGTFKICNREYTVVFHTVAKDDKIEINVGDQTSFIKEKDDRCKTWLCRVRDEGISVIFEPIKAFFGSYFSIFFYIIVVVVVGFLIIYIFMPMFMKLKEVLKANEKLYLQEIKQK
modifications: N-linked glycan at N624
notes: Glycoprotein Gc of Bunyamwera virus, cut from the M segment polyprotein (Gn-NSm-Gc); ectodomain 478-1382; head, stalk and floor (fusion domain) regions; membrane-anchored in the virion envelope; Native Gc in the envelope of purified virions; also called BUNV Gc
B1 was tested, and the “stoichiometry N” value was 3.

B2: Bunyamwera virus (BUNV) glycoprotein Gn (natural protein, UniProt P04505 17-302, looked up)
chain: SPVITRCFHGGQLIAERKSQTSISEFCIKDDVSMLKSEIVYTKNDTGIFGHSKVFRHWTITDWKACNPVVTAGGSINVIEVDKNLNLVTRNYVCTGDCTITVDRKNAQIIFQTDKLNHFEVTGTTISTGWFKSKASVTLDRTCEHIKVSCGKKTLQFHACFKQHMSCVRFLHRSILPGSMAISICQNIELIIITILALCIFIIMIILTKTYICYVLIPVFMPIAFAYGWAYNRSCKKCTCCGLAYHPFTNCGSYCVCGSKFETSDRMRMHRESGLCQGFKSLRVAR
modifications: N-linked glycan at N60
notes: Glycoprotein Gn of Bunyamwera virus, cut from the M segment polyprotein (Gn-NSm-Gc); ectodomain 17-205; membrane-anchored in the virion envelope; Native Gn in the envelope of purified virions; also called BUNV Gn
In the case of B2, the “stoichiometry N” value is reported as 3.
